Test results: paper PMC11375011, “Inducible auto-phosphorylation regulates a widespread family of nucleotidyltransferase toxins” (Nature Communications, 2024)
Entries after “also recorded” stand apart in the source; their conditions may differ.

Biological target: MenA1
Conditions: sites T39

Q: How did the “other: observed/calculated Stokes radius ratio against the heterotrimer” value turn out when MenT1 was run?
A: Its value is “weaker; reference 0.97; also recorded: same; reference 0.97”.
